Results reported in patent US20120090043A1, “TARGETS FOR RETROVIRUS ASSOCIATED DISEASES” (priority 2009, published 2012).

B1: TEX11: human host interactor protein, Gene ID 56159, expressed from transfected ORF vector (protein)
chain: MISAHCNLRLLCSSDSSASASQVAGTTEVVENLVTNDNSPNIPEAIDRLFSDIANINRESMAEITDIQIEEMAVNLWNWALTIGGGWLVNEEQKIRLHYVACKLLSMCEASFASEQSIQRLIMMNMRIGKEWLDAGNFLIADECFQAAVASLEQLYVKLIQRSSPEADLTMEKITVESDHFRVLSYQAESAVAQGDFQRASMCVLQCKDMLMRLPQMTSSLHHLCYNFGVETQKNNKYEESSFWLSQSYDIGKMDKKSTGPEMLAKVLRLLATNYLDWDDTKYYDKALNAVNLANKEHLSSPGLFLKMKILLKGETSNEELLEAVMEILHLDMPLDFCLNIAKLLMDHERESVGFHFLTIIHERFKSSENIGKVLILHTDMLLQRKEELLAKEKIEEIFLAHQTGRQLTAESMNWLHNILWRQAASSFEVQNYTDALQWYYYSLRFYSTDEMDLDFTKLQRNMACCYLNLQQLDKAKEAVAEAERHDPRNVFTQFYIFKIAVIEGNSERALQAIITLENILTDEESEDNDLVAERGSPTMLLSLAAQFALENGQQIVAEKALEYLAQHSEDQEQVLTAVKCLLRFLLPKIAEMPESEDKKKEMDRLLTCLNRAFVKLSQPFGEEALSLESRANEAQWFRKTAWNLAVQCDKDPVMMREFFILSYKMSQFCPSDQVILIARKTCLLMAVAVDLEQGRKASTAFEQTMFLSRALEEIQTCNDIHNFLKQTGTFSNDSCEKLLLLYEFEVRAKLNDPLLESFLESVWELPHLETKTFETIAIIAMEKPAHYPLIALKALKKALLLYKKEEPIDISQYSKCMHNLVNLSVPDGASNVELCPLEEVWGYFEDALSHISRTKDYPEMEILWLMVKSWNTGVLMFSRSKYASAEKWCGLALRFLNHLTSFKESYETQMNMLYSQLVEALSNNKGPVFHEHGYWSKSD
B2: TRAF2: human host interactor protein, Gene ID 7186, expressed from transfected ORF vector (protein)
chain: MAAASVTPPGSLELLQPGFSKTLLGTKLEAKYLCSACRNVLRRPFQAQCGHRYCSFCLASILSSGPQNCAACVHEGIYEEGISILESSSAFPDNAARREVESLPAVCPSDGCTWKGTLKEYESCHEGRCPLMLTECPACKGLVRLGEKERHLEHECPERSLSCRHCRAPCCGADVKAHHEVCPKFPLTCDGCGKKKIPREKFQDHVKTCGKCRVPCRFHAIGCLETVEGEKQQEHEVQWLREHLAMLLSSVLEAKPLLGDQSHAGSELLQRCESLEKKTATFENIVCVLNREVERVAMTAEACSRQHRLDQDKIEALSSKVQQLERSIGLKDLAMADLEQKVLEMEASTYDGVFIWKISDFARKRQEAVAGRIPAIFSPAFYTSRYGYKMCLRIYLNGDGTGRGTHLSLFFVVMKGPNDALLRWPFNQKVTLMLLDQNNREHVIDAFRPDVTSSSFQRPVNDMNIASGCPLFCPVSKMEAKNSYVRDDAIFIKAIVDLTGL
B3: TRIP6: human host interactor protein, Gene ID 7205, expressed from transfected ORF vector (protein)
chain: MSGPTWLPPKQPEPARAPQGRAIPRGTPGPPPAHGAALQPHPRVNFCPLPSEQCYQAPGGPEDRGPAWVGSHGVLQHTQGLPADRGGLRPGSLDAEIDLLSSTLAELNGGRGHASRRPDRQAYEPPPPPAYRTGSLKPNPASPLPASPYGGPTPASYTTASTPAGPAFPVQVKVAQPVRGCGPPRRGASQASGPLPGPHFPLPGRGEVWGPGYRSQREPGPGAKEEAAGVSGPAGRGRGGEHGPQVPLSQPPEDELDRLTKKLVHDMNHPPSGEYFGQCGGCGEDVVGDGAGVVALDRVFHVGCFVCSTCRAQLRGQHFYAVERRAYCEGCYVATLEKCATCSQPILDRILRAMGKAYHPGCFTCVVCHRGLDGIPFTVDATSQIHCIEDFHRKFAPRCSVCGGAIMPEPGQEETVRIVALDRSFHIGCYKCEECGLLLSSEGECQGCYPLDGHILCKACSAWRIQELSATVTTDC

The molecules below were run on HIV-1 LTR promoter transactivation by HIV-1 Tat (assay: Transactivation assay, HIV-1 LTR luciferase reporter with HIV-1 Tat). Details: HEK293 cells co-transfected with pHIV1LTR-Luc, HIV-1 Tat and the human ORF; relative luciferase activity 24 h post-transfection; positive if >=2 or <=0.5 and p<0.05.
Assay type: cell-based
Excerpt: The plasmids pHIV1LTR-Luc or pHTLV1LTR-Luc containing a luciferase reporter gene under the control of the HIV-1 or HTLV-1 LTR promoters and plasmids expressing either HIV-1 Tat or HTLV-1 Tax and each human ORF found to interact with viral proteins were transfected into 10^4 HEK293 cells using the calcium phosphate method. Twenty-four hours post-transfection, cells were washed three times with PBS, lysed and luciferase activities determined from two independent transfection experiments in triplicate. We computed a paired t-test to assess the difference of the means between samples with and without the human interactor. For a trial to be considered positive, the relative luciferase activities has to be >=2 or <=0.5, and the p-value of the t-test<0.05.
Many HIV/HTLV-human interactions in our data set (130/212) involved the retroviral transactivator proteins HTLV-1 Tax (57/212), HTLV-2 Tax2 (49/212), HIV-1 Tat (10/212) and HIV-2 Tat (14/212). Human proteins interacting with viral transactivators likely influence Tat or Tax transactivation. Expression vectors encoding human ORFs and HIV-1 Tat or HTLV-1 Tax proteins were tested in a transactivation reporter assay against reporter plasmids harboring HIV-1 or HTLV-1 viral promoter sequences cloned upstream of the luciferase reporter gene. In the controls Tat or Tax respectively activated HIV or HTLV LTR-directed gene expression. Co-transfection of interacting human ORFs identified 71 proteins (54% of the 131 human targets in our data set) that regulated HIV (26.7% of targets), HTLV (37.4% of targets) or both (9.9% of targets) LTR promoter activation by Tat or Tax (see Tables 7 and 8; Table 13 below containing quantitative data on the regulation of transactivation). Wherever not expressly specified, constructs used herein were generally made by sub-cloning entry clones from the ORFeome V3.1 into suitable destination vectors.
For B1, the HIV_LTR transactiv. was 4.41 fold change. In the case of B2, the HIV_LTR transactiv. is reported as 0.22 fold change. B3 gave an HIV_LTR transactiv. of 2.87 fold change.
